Source: article doi:10.1101/2020.10.05.326918 (bioRxiv, 2020)

T1: MED22 (Mus musculus (endogenous in CH12 cells), UniProt Q62276 1-200)
T1 sequence (looked up): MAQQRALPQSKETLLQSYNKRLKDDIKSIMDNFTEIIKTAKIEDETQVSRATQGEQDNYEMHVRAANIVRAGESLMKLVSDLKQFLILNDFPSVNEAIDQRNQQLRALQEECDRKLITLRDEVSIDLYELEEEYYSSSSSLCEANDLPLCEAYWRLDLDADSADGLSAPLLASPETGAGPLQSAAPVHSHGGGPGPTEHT

T2: MED15 (Mus musculus (endogenous in CH12 cells), UniProt Q924H2 1-789)
T2 sequence (looked up): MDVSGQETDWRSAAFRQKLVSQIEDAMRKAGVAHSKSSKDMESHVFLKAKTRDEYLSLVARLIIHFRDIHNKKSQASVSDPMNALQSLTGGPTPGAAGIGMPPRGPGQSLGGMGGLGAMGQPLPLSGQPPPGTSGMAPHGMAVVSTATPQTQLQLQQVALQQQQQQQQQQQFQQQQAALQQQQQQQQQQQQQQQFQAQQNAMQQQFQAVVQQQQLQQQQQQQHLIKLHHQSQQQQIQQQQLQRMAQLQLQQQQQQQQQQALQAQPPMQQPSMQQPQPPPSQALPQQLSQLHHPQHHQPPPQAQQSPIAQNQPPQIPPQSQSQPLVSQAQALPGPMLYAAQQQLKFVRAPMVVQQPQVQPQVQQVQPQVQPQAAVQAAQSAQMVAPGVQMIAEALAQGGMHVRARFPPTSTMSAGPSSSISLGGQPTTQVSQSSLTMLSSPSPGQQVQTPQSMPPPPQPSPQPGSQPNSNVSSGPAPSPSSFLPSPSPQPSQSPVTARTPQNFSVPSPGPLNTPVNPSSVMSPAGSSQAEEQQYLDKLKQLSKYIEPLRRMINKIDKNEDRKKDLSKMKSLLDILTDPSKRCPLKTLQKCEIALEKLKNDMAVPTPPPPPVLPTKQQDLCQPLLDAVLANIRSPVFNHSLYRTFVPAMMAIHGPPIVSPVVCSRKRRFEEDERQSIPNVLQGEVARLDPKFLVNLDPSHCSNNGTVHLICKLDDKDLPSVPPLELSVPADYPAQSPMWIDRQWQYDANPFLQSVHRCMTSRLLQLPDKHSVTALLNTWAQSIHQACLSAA

T3: MED16 (Mus musculus (endogenous in CH12 cells), UniProt Q6PGF3 1-828)
T3 sequence (looked up): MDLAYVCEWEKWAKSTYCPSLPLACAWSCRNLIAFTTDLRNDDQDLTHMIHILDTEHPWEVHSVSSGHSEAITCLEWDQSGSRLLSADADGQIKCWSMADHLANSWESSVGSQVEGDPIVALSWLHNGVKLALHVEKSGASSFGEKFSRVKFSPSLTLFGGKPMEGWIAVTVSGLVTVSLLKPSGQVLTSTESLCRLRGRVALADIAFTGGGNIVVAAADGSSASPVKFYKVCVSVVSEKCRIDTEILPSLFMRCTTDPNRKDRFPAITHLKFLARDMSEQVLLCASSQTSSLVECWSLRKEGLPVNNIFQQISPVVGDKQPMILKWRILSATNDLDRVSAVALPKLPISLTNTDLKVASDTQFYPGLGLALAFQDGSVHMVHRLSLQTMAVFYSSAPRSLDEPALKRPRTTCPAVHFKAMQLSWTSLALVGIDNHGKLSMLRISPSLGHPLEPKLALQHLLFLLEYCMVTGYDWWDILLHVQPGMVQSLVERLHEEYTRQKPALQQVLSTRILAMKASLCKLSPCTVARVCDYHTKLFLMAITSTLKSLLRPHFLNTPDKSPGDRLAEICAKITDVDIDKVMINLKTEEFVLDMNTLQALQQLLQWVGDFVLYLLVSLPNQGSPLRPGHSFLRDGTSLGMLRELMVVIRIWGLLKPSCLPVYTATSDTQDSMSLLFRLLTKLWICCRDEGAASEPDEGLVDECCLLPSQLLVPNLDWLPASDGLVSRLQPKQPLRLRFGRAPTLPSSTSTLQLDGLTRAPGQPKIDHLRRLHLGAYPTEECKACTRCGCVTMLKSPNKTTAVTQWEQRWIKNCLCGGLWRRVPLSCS

B1: MED30 (natural protein, Mus musculus (endogenous in CH12 cells), UniProt Q9CQI9 1-178, looked up)
chain: MSTPPLAPTGMASGPFGGPQAQQAAREVNTATLCRIGQETVQDIVYRTMEIFQLLRNMQLPNGVTYHTGTYQDRLTKLQDHLRQLSILFRKLRLVYDKCNENCGGMDPIPVEQLIPYVDEDGSKNDDRAGPPRFASEERREIVEVNKKLKQKNQQLKQIMDQLRNLIWDINAMLAMRN
B2: MED28 (natural protein, Mus musculus (endogenous in CH12 cells), UniProt Q920D3 1-178, looked up)
chain: MAASLGGMFTGQPPGPPPPPPGLPGQASLLQAAPGAPRPSNSTLVDELESSFEACFASLVSQDYVNGTDQEEIRTGVDQCIQKFLDIARQTECFFLQKRLQLSVQKPDQVIKEDVSELRSELQRKDALVQKHLTKLRHWQQVLEDINVQHKKPADMPQGSLAFLEQASANIPAPLKQT
B3: MED17 (natural protein, Mus musculus (endogenous in CH12 cells), UniProt Q8VCD5 1-649, looked up)
chain: MSGVRAVRISIESACEKQVQEVGLDGTETYLQPLSMSQNLARLAQRIDFSQGSGSEEEEAAGPDGDAPDWGGAGADQDDEEGLVKFQPSLWPWDSVRNNLRSALTEMCVLYDVLSIVRDKKFMTLDPVSQDALPPKQSPQTLQLISKKKSLAGAAQILLKGAERLTKSVAENQENKLQRDFNSELLRLRQHWKLRKVGDKILGDLSYRSAGSLFPHHGTFEVIKNTDIDLDKKIPEDYCPLDVQIPSDLEGSAYIKVSIQKQAPDIGDLGTVNLFKRPLPKSKPGSPHWQTKLEAAQNVLLCKEIFAQLSREAVQIKSQIPHIVVKNQIISQPFPSLQLSISLCHSSDDKKSQKCAAEKPGQEDHLYVLEHNLHLLIREFHKQTLSSIVMPHPASAPFGHKRMRLSGPQAFDKNEINSIQSTEGLLEKIIKQAKHIFLRSRTAATIDSLASRIEDPQIQAHWSNINDVYESSVKVLITSQGYEQICKSIQLQLNIGVEQVRVVHRDGRVIMLSHQEQELQDFLLSQMSQHQVHAVQQLAKVMGWQVLSFSNHVGLGPIESIGNASAITVASPSGDYAISVRNGPESGSKIMVQFPRNQCKDLPKSDVLQDSKWSHLRGPFKEVQWNKMEGRNFVYKMELLMSALSPCLL
B4: MED29 (natural protein, Mus musculus (endogenous in CH12 cells), UniProt Q9DB91 1-199, looked up)
chain: MAAPQPQAAAVSSASGVSGPGSAGGPGPQQQPQPTQLVGSAQSGLLQQQQQDFDPVQRYKMLIPQLKESLQTLMKVAAQNLIQNTNIDNGQKSSDAPLQRFDKCLEEFYALCDQLELCLRLAHECLSQSCDSAKHSPTLVPTATKPDAVQPDSLPYPQYLAVIKAQITCAKDIHTALLDCANKVTGKTTAPSTGPGGSL
B5: MED27 (natural protein, Mus musculus (endogenous in CH12 cells), UniProt Q9DB40 1-311, looked up)
chain: MADVLSVGVNLEAFSQAISAIQALRSSVSRVFDCLKDGMRNKETLEGREKAFIANFQDNLHSVNRDLNELERLSNLVGKPSENHPLHNSGLLSLDPVQDKTPLYSQLLQAYKWSNKLQYHAGLASGLLNQQSLKRSANQMGVSAKRRPKAQPTTLVLPPQYVDDVISRIDRMFPEMSIHLSRPNGTSAMLLVTLGKVLKVIVVMRSLFIDRTIVKGYNESVYTEDGKLDIWSKSSYQVFQKVTDHATTALLHYQLPQMPDVVVRSFMTWLRSYIKLFQAPCQRCGKFLQDGLPPTWRDFRTLEAFHDTCRQ

Key:
Test in all cases: cryo-EM structure
MED22 = target: T1, MED22
MED27 = target: B5
MED29 = target: B4
MED30 = target: B1
MED15 = target: T2, MED15
MED14 = MED14 (Mus musculus (endogenous in CH12 cells), UniProt A2ABV5 1-1459)
MED16 = target: T3, MED16
MED17 = target: B3

MED14, sequence (A2ABV5 whole entry): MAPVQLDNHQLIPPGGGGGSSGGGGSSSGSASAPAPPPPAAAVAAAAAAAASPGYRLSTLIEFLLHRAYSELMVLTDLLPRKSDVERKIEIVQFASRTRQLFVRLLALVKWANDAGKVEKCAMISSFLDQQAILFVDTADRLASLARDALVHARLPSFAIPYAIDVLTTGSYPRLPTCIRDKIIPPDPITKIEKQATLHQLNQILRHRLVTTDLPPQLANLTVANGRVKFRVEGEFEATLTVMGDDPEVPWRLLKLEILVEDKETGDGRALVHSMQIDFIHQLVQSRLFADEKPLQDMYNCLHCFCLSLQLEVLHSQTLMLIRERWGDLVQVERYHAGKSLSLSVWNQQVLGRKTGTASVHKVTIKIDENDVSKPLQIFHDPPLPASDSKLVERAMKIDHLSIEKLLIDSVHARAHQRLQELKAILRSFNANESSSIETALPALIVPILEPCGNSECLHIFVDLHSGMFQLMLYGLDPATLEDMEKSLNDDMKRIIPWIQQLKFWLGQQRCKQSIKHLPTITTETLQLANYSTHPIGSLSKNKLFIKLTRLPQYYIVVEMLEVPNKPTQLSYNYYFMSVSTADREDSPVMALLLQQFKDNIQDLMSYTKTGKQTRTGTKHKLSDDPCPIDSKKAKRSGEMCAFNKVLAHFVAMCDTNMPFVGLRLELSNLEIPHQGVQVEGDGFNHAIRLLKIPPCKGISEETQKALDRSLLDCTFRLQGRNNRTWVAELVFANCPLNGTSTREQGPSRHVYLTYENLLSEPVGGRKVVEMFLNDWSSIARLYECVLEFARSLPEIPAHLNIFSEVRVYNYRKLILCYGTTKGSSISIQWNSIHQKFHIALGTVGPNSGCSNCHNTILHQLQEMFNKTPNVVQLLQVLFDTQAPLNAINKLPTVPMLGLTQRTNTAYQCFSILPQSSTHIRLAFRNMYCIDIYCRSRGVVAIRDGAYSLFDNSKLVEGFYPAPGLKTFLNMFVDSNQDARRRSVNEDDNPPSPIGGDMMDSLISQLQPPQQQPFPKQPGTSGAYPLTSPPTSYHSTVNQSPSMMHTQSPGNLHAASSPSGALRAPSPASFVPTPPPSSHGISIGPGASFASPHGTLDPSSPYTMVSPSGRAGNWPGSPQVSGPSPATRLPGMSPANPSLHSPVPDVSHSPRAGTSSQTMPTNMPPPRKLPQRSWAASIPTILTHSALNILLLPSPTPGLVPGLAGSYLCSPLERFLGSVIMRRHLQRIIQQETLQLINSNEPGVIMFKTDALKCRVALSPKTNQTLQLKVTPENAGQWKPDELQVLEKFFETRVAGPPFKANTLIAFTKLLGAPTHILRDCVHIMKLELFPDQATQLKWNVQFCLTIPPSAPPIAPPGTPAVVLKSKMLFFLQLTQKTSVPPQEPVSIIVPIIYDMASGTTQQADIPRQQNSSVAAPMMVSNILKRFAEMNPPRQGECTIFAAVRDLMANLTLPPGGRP

Row | binding result (MED22) | binding result (MED27) | binding result (MED29) | binding result (MED30) | binding result (MED15) | binding result (MED14) | binding result (MED16) | binding result (MED17) | Binder
1 | binds | binds | binds | – | – | – | – | – | B1
2 | binds | binds | binds | binds | – | – | – | – | B2
3 | – | – | – | – | binds | binds | – | – | B3
4 | – | binds | – | – | binds | binds | binds | – | B4
5 | – | – | – | – | binds | binds | binds | binds | B5
